System: Saccharomyces cerevisiae
Test: transcriptional activation domain activity (GFP:mCherry ratio, weighted mean of sorted bins, harmonized to initial dataset scale) (arbitrary fluorescence ratio units); higher = stronger transcriptional activation
Settings: beta-estradiol 1 µM; induction time 4 h
In short: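 Barcoded protein tiles fused to an estradiol-inducible synthetic transcription factor were integrated at the yeast URA3 locus, in diploids carrying a GFP reporter. Cultures were diluted 1:5 into SC with 1 uM beta-estradiol, held 4 hours at 30 °C, sorted into 8 bins by GFP:mCherry ratio, and barcodes sequenced. Tiles under 50 reads were discarded. Activation activity is the read-weighted mean of bin median fluorescence, averaged across barcodes, then linearly mapped onto the initial dataset scale.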

Row | Sequence | transcriptional activation domain activity
1 | REGHLFSCIYIMYCQILFRKVGWSSVFDCAFHVLLAMSAAGNFLVVGAIRCKC | 37300
2 | MAASDGPSPKKRKFARAVNTCAPCARRKVKCDRESHAPCSNCRKRRETALCEP | 9660
3 | RFFIRVLSNLKIDRHNSMYCTLGRPITILNLILRGWYVVRKFIILLFSIVLLF | 54100
4 | RVFTVPGKCFFDALAADSTDASCTEESLKKIWNELHTTSSEIEPWSNGYIDIS | 98000
5 | NQGSGSKTGGEVDLVGEREEVMRSVHDSRAQLSEDYEYERRNISLAVPLGRGQ | 41000
6 | PKDEKKQEDDQKAKDGSKSEGDLGEKKEEKVEEKKDDDNKSGEKKDEASKSGD | 28000
7 | LSLLLQDRPRFIFGFSFLLLKSIWCIGFYFINSRLKCMCILYILLIDILYFTF | 49800
8 | VPLHISLPSLVIDVRVIGEPGLYFADLGCCYCLDAELQITHIHGLFLHVVFIL | 56600
9 | AAEEAVKVAVVVEGAKKRRGRPRKDAVDEEGTVLGALADATNTQTATAAPVPM | 24300
10 | ADTILITMVGIFDLIACFFTCIVQVLRFKMGISVQEILIWCWFDLLIFSTSTF | 34300
11 | VLRLFNDVWAVTLTQLSILALVGVYLILPYYNVLQCCLIRQDVVLLYLPAFLV | 66500
12 | HVDQWTVIEQCLLYHQTNFIYFLFFAPLPPFLCLFFLLFVSLVFLCFDPFPLI | 42500
13 | KASKSKKRKHHHHKSAVSSPEASDADTASQSSKRSKKSKRRHADADARAAANG | 36700
14 | IPIQLGCMHLHSPWMTYALLYQLIYPMMMIYNLVNCIYFGTGTQMLWWMVSIV | 73000
15 | AADGSPAPRPNAICIHEVDQGIQWKHTNHRTGKAVVVRKRQLVLQQIITVANY | 44500
16 | RDVFLGILHRNWFNRVWILQEVASARAAVVFCGRNSISTRIFTRLPLLFDITP | 68000
17 | MPSCFCFIPEFTALSLPPLCSLFWFRLCTWLFLRMLCTRIYLFCSWFFCLTYF | 56400

Row | Sequence | transcriptional activation domain activity
18 | MCNVALSLAWFIFPPFLHGILPFSTCLLLVFFLSLSSSFFSLITHLLLHCYLF | 34900
19 | MWVINRAFLEFYFIFCIVFTVHLVCFCFFWLIFLFCLLHASFLLCDFPFFFYY | 41100
20 | MPTVRCLLPFVLFTGLLYRILLSLSFLLVLPFLILLFSSPSLLSCFLLLAYIL | 57000
21 | GCRNAYEIKTLRFGGVCMLHRCGGGQNCFKECCIDLMICLRFYIPFMKKFCPK | 15900
22 | RYLYAAMNLLSIINPIFSLIQFVIACFLVAGNLSLVYVRVWGPIVLLSLFLFD | 45800
23 | GWVVILSSRCRIKTSVSRERLKMDVFWLIESIGLTVEYWRIVWDLRATYHFLR | 33000
24 | SGGKTMVSGSFAGESGRLQGSGPFGRGGGRESREQAYDNGRAKIARLAHGLRL | 22400
25 | SPFASAGQTGQSPFGGLNKASSPAFAGTGSGSTFGQASTLGGAFGKPAEPAAT | 32400
26 | DLDFRGIFMTDWYANYDYMVSDLIMPGFWRVPVLPKWYNWTGFFASWPLIGQF | 68800
27 | GSKGAMRARAEERGEGGEGGEREEGREGRGERRGGGRGGEGRERERGGREGRG | 25000
28 | MNLYLLCRYMTLVYCFVYMLGNNITKFDCEVWVKALLSFGYIASILSSSLIVL | 61200
29 | MLFLFFFIHILHPFFFFFNPFFLFLSFFFISFCTSVCLCMRKQLTRIIFLNYI | 50500
30 | MLMAWVIHAKCSAVPQCPPRPAVRSYIGRITLSLIIRARCILEMIVFPTFICW | 55600
31 | TIVLEELRRASYWGRPSLERSWLLLDMTIKSFTGFIRLLDGDLARTICLFYLV | 76100
32 | MIQTPLFYYLFYILFYFIFIFIYSLLGFFLIFYLFVLFSFHFCFPPPPPFSFF | 46900
33 | NDGNESNEDYLGNEKFYLNEILPDEESKLRWKRVFENSENDHDNEKNFLTDWE | 39900
34 | LQSPLYGRHILVAQQLVYYGCVILFPWLFISCALMFKFRGSWLLLYGMIDLSL | 44100

Source: the supplement of paper PMC12636428
